# From patent publication US20190169308A1 (ALLIGATOR BIOSCIENCE, published 2019)
# T1: recombinant human OX40 (R&D #1493-CD) (human, UniProt P43489 29-216, limits assumed)
# T1 sequence (looked up): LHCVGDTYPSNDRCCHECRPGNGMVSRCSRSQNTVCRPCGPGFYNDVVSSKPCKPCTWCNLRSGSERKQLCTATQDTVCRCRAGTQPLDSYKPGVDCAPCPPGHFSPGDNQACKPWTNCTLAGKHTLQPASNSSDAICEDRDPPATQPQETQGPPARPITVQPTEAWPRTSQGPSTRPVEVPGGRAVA
# B1: 1202/1203 (antibody, V domains shown)
# VH: EVQLLESGGGLVQPGGSLRLSCAASGFTFYGSSMSWVRQAPGKGLEWVSSIYYGSSGTYYADSVKGRFTISRDNSKNTLYLQMNSLRAEDTAVYYCARSYYGYFDYWGQGTLVTVSS
# VL: DIQMTQSPSSLSASVGDRVTITCRASQSISSYLNWYQQKPGKAPKLLIYAASSLQSGVPSRFSGSGSGTDFTLTISSLQPEDFATYYCQQYYTVVPFTFGQGTKLEIK
# B2: 1214/1215 (antibody, V domains shown)
# VH: EVQLLESGGGLVQPGGSLRLSCAASGFTFSSYAMSWVRQAPGKGLEWVSSIGSGGGYTGYADSVKGRFTISRDNSKNTLYLQMNSLRAEDTAVYYCARVGHPFDYWGQGTLVTVSS
# VL: DIQMTQSPSSLSASVGDRVTITCRASQSISSYLNWYQQKPGKAPKLLIYAASSLQSGVPSRFSGSGSGTDFTLTISSLQPEDFATYYCQQDAYPHTFGQGTKLEIK
# Key:
# [1] = target: Human CD137 (R&D systems) (human, UniProt Q07011 24-186, limits assumed); test: SPR Biacore, amine-coupled CD137, mAb injected (bivalent)
# Protocol: Human CD137 (R&D systems) was immobilized to the Biacore™ sensor chip, CMS, using conventional amine coupling. The tested antibody and control (serially diluted 1/2 10-0.63 nM) were analyzed for binding in HBS-P (GE, #BR-1003-68) at a flow rate of […]. The association was followed for 5 minutes and the dissociation for 15 minutes. Regeneration was performed twice using 10 mM Glycine pH 1.7 for 30 seconds. The kinetic parameters and the affinity constants were calculated using 1:1 Langmuir model.
# [2] = target: T2, CD40-Fc (Ancell #504-820) (human, UniProt P25942 21-193); test: ELISA, coated CD40-Fc; coated CD40-Fc
# T2 construct: not shown: Fc part, bought reagent, not described
# Protocol: (§1) ELISA plates (Greiner #655074) were coated with 50 μl/well of recombinant human OX40 (R&D #1493-CD), CD40-Fc (Ancell #504-820) or CD137 (R&D #838-4B) diluted to a final concentration of 0.5 μg/ml in PBS for 1h at 37° C. or overnight at 4° C. Plates were washed with PBS+0.05% TWEEN20 (PBST), followed by block with PBST+1% bovine serum albumin (BSA). Antibody samples were prepared as serial 1/10 dilutions from 10-0.01 μg/ml in PBST+1% BSA and incubated for 1 h in room temperature, followed by detection using a horse radish peroxidase-conjugated anti-human kappa light chain antibody (AbD Serotec #STAR127P) and developed using SuperSignal ELISA Pico Chemiluminescent substrate (Pierce ThermoScientific #37069).
# [3] = target: T3, human/mouse CD137 chimera 1554; test: flow cytometry, 293-F cells with CD137 chimera
# T3 construct: on transfected FreeStyle 293-F cells
# Protocol: (§2) The ability of each antibody to bind to a panel of human/mouse CD137 chimeras expressed on the surface of transfected cells was analyzed by flow cytometry.
# (§3) The chimeras were designed by exchanging domains or modules of the human CD137 with the corresponding mouse domain (FIG. 7). Genes of CD137 human/mouse chimeras were synthesized (GenScript) and constructs cloned into pcDNA3.1 vector (Invitrogen) and transiently transfected into FreeStyle 293-F cells (Invitrogen). The transfected cells were incubated with CD137 antibodies and control antibodies, followed by incubation with anti-human IgG-PE (Jackson Immunoresearch) for detection and analyzed with FACS Verse (BD Biosciences). Binding to the different chimeric constructs was calculated as relative MFI compared to the binding of the isotype control, followed by normalization to the full-length human CD137 construct to minimize the effect of affinity differences between individual antibodies.
# [4] = target: T4, human/mouse CD137 chimera 1553; test: flow cytometry, 293-F cells with CD137 chimera
# T4 construct: on transfected FreeStyle 293-F cells
# Protocol: as §2, §3
# [5] = target: T5, human/mouse CD137 chimera 1550; test: flow cytometry, 293-F cells with CD137 chimera
# T5 construct: on transfected FreeStyle 293-F cells
# Protocol: as §2, §3
# [6] = target: T6, human/mouse CD137 chimera 1552; test: flow cytometry, 293-F cells with CD137 chimera
# T6 construct: on transfected FreeStyle 293-F cells
# Protocol: as §2, §3
# [7] = target: T7, human/mouse CD137 chimera 1551; test: flow cytometry, 293-F cells with CD137 chimera
# T7 construct: on transfected FreeStyle 293-F cells
# Protocol: as §2, §3
# [8] = target: T8, human/mouse CD137 chimera 1555; test: flow cytometry, 293-F cells with CD137 chimera
# T8 construct: on transfected FreeStyle 293-F cells
# Protocol: as §2, §3
# [9] = target: T2, CD40-Fc (Ancell #504-820); test: ELISA, coated CD40-Fc
# Protocol: as §1
# [10] = target: T9, recombinant human CD137-Fc (R&D #838-4B) (human, UniProt Q07011 24-186); test: ELISA, coated CD137 (R&D #838-4B)
# T9 construct: bought; also called CD137 (R&D #838-4B); not shown: Fc part, bought reagent, not described
# [11] = target: T10, full-length human CD137 construct 1030 (human, UniProt Q07011 24-255); test: flow cytometry, 293-F cells with full-length CD137 (reference of the normalization)
# T10 construct: whole, on cells; on transfected FreeStyle 293-F cells; also called Full-length CD137
# Protocol: as §2, §3
# [12] = target: T9, recombinant human CD137-Fc (R&D #838-4B); test: ELISA, coated CD137-Fc
# Protocol: (§4) Binding of CD137 antibodies to recombinant human CD137 was determined by sandwich ELISA. Briefly, ELISA plates (Greiner #655074) coated with recombinant human CD137-Fc (R&D #838-4B) were incubated with serial dilutions of the various CD137 antibodies to be investigated. CD137 antibodies were detected using HRP-conjugated goat-anti-human kappa light chain (AbD Serotec #STAR127P) and developed with SuperSignal ELISA Pico Chemiluminescent substrate (Pierce #37069). EC50 values of the various antibodies were determined in 2-6 separate experiments.
# [13] = target: T11, cynomolgus CD137 on transfected CHO cells (cynomolgus; human); test: flow cytometry, CHO-cyCD137; 95% CI of EC50
# T11 construct: extracellular domain;domain: transmembrane and intracellular part; also called CHO-cyCD137; CHOcynoCD137
# Protocol: (§5) Binding and EC50 was determined using flow cytometric analysis of CHO cells transfected with human CD137, cynomolgus CD137 or empty vector. The extracellular part of human or cynomolgus CD137 was fused to the transmembrane and intracellular part of human CD40 and cloned into pcDNA3.1. The vector was subsequently stably transfected into CHO cells. […] CD137-transfected and empty vector-transfected cells were incubated with CD137 antibodies for at least 1h at 4° C. to saturate the binding. In order to minimize antibody internalization, 0.05% sodium azide was used in the incubation buffer and all work was performed on ice. […] Directly after staining the cells were fixed with a paraformaldehyde solution (10x concentrate BD CellFIX, BD biosciences #340181). Cells were analyzed by flow cytometry using FACSVerse (BD Biosciences). The median fluorescence intensity (MFI) for each sample was determined and the dose response data was analysed using Graph Pad Prism.
# (§6) MFI data was normalized for each antibody, where 0% is defined as the lowest value and 100% is the highest value in the dose titration for each antibody.
# [14] = target: T9, recombinant human CD137-Fc (R&D #838-4B); test: ELISA, coated CD137-Fc; remark: listed apart in the source
# Protocol: as §4
# [15] = target: T12, human CD137 on transfected CHO cells (human, UniProt Q07011 24-186; P25942 194-277, limits assumed); test: flow cytometry, CHO-huCD137; 95% CI of EC50
# T12 construct: extracellular domain;domain: transmembrane and intracellular part; also called CHO-huCD137; CHOhCD137
# Protocol: as §5, §6
# [16] = target: T11, cynomolgus CD137 on transfected CHO …; test: flow cytometry, CD137-transfected CHO cells
# Protocol: as §5, §6
# [17] = target: T3, human/mouse CD137 chimera 1554; test: flow cytometry, 293-F cells with CD137 chimera; Exp 2
# Protocol: as §2, §3
# [18] = target: T4, human/mouse CD137 chimera 1553; test: as above
# Protocol: as §2, §3
# [19] = target: T5, human/mouse CD137 chimera 1550; test: as above
# Protocol: as §2, §3
# [20] = target: T6, human/mouse CD137 chimera 1552; test: as above
# Protocol: as §2, §3
# [21] = target: T7, human/mouse CD137 chimera 1551; test: as above
# Protocol: as §2, §3
# [22] = target: T8, human/mouse CD137 chimera 1555; test: as above
# Protocol: as §2, §3
# [23] = target: T1, recombinant human OX40 (R&D #1493-CD); test: ELISA, coated OX40
# Protocol: as §1
# [24] = target: T3, human/mouse CD137 chimera 1554; test: flow cytometry, 293-F cells with CD137 chimera; Exp 1
# Protocol: as §2, §3
# [25] = target: T4, human/mouse CD137 chimera 1553; test: as above
# Protocol: as §2, §3
# [26] = target: T5, human/mouse CD137 chimera 1550; test: as above
# Protocol: as §2, §3
# [27] = target: T6, human/mouse CD137 chimera 1552; test: as above
# Protocol: as §2, §3
# [28] = target: T7, human/mouse CD137 chimera 1551; test: as above
# Protocol: as §2, §3
# [29] = target: T8, human/mouse CD137 chimera 1555; test: as above
# Protocol: as §2, §3
# Sequence of Human CD137 (R&D systems) (Q07011 24-186 limits assumed): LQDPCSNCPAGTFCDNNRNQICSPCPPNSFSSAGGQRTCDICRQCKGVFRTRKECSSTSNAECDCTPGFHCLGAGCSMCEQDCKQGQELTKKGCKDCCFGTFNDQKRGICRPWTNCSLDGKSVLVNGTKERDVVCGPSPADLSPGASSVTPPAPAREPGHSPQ
# T9 sequence (Q07011 24-186 limits assumed): as above
# T2 sequence (P25942 21-193 limits assumed): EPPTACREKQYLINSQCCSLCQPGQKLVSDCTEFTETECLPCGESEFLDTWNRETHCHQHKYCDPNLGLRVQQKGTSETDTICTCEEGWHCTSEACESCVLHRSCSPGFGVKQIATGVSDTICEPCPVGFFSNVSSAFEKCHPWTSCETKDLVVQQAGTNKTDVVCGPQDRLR
# T11 sequence (P25942 other isoform, or with tags, fused parts or gaps): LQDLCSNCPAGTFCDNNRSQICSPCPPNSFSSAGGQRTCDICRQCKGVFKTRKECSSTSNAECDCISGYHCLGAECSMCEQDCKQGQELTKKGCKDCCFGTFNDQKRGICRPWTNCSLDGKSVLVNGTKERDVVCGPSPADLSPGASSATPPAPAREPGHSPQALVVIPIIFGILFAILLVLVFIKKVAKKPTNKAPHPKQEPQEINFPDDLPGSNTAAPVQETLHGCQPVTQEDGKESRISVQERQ
# T12 sequence (Q07011 other isoform, or with tags, fused parts or gaps limits assumed): as the sequence (P25942 other isoform, or with tags, fused parts or gaps) above, with L4P, S19N, K50R, I66T, S67P, Y69F, E75G, A149V counted along it
# T10 sequence (Q07011 24-255): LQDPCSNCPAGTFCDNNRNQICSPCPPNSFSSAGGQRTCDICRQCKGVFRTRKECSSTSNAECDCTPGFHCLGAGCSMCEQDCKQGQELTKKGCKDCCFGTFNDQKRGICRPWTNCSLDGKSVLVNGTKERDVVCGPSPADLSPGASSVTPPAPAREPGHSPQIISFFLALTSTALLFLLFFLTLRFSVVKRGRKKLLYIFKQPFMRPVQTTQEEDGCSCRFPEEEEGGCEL
binder,measurement,setting,value
B1,Kd,[1],0.976 nM
same,koff,[1],0.00066 s⁻¹
same,kon,[1],676000 M⁻¹ s⁻¹
same,EC50,[2],> 40 nM
same,MFI/isotype control normalized to full-length human CD137,[3],0.51
same,MFI/isotype control normalized to full-length human CD137,[4],0.65
same,MFI/isotype control normalized to full-length human CD137,[5],0.05
same,MFI/isotype control normalized to full-length human CD137,[6],0.06
same,MFI/isotype control normalized to full-length human CD137,[7],0.05
same,MFI/isotype control normalized to full-length human CD137,[8],0.26
same,EC50,[9],> 10 µg/mL
same,EC50,[10],0.4 nM
same,MFI/isotype control normalized to full-length human CD137,[11],1
same,EC50,[12],~0.06 µg/mL
same,EC50,[13],0.11 to 0.17 µg/mL
same,EC50,[14],0.41 nM
same,EC50,[15],0.16 to 0.27 µg/mL
same,"Ratio, cyno:human",[16],0.67
B2,binding result,[9],no binding (tested: 10 µg/ml)
same,MFI/isotype control normalized to full-length human CD137,[17],0.15
same,MFI/isotype control normalized to full-length human CD137,[18],0.15
same,MFI/isotype control normalized to full-length human CD137,[19],0.14
same,MFI/isotype control normalized to full-length human CD137,[20],0.13
same,MFI/isotype control normalized to full-length human CD137,[21],0.15
same,MFI/isotype control normalized to full-length human CD137,[22],0.45
same,binding result,[23],no binding (tested: 10 µg/ml)
same,MFI/isotype control normalized to full-length human CD137,[24],0.26
same,MFI/isotype control normalized to full-length human CD137,[25],0.41
same,MFI/isotype control normalized to full-length human CD137,[26],0.06
same,MFI/isotype control normalized to full-length human CD137,[27],0.32
same,MFI/isotype control normalized to full-length human CD137,[28],0.07
same,MFI/isotype control normalized to full-length human CD137,[29],0.3
